Experimental data taken from PMC3172300, “Modulation of Catalytic Activity in Multi-Domain Protein Tyrosine Phosphatases” (PLoS ONE, 2011).
Read-outs that look alike come from different tables or passages of the source.

T1: DLAR D1HSS D2 (Drosophila melanogaster, UniProt P16621, C1670S)
T1 construct: DLAR 1448-2029; His tag (pET-15b or pET-22b); made in house; host or cells: E. coli BL21(DE3)
T1 sequence (P16621 1448-2029 C1670S): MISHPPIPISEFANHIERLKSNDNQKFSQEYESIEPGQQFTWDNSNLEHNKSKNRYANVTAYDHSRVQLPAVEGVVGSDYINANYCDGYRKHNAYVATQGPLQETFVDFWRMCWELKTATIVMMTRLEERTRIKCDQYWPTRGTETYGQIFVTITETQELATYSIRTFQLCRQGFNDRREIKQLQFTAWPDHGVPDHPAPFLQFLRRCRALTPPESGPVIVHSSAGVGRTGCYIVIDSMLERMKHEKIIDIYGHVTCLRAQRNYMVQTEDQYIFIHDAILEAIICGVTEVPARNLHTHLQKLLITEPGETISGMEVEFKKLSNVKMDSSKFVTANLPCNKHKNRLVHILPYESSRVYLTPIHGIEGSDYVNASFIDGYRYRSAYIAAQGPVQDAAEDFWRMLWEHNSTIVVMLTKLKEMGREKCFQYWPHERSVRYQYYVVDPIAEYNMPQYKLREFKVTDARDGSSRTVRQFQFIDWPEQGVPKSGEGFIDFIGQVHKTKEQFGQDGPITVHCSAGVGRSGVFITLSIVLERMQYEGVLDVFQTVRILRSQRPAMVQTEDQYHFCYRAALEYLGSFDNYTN

T2: DLAR D1D2 (Drosophila melanogaster, UniProt P16621)
T2 construct: DLAR 1448-2029; His tag (pET-15b or pET-22b); made in house; host or cells: E. coli BL21(DE3)
T2 sequence (P16621 1448-2029): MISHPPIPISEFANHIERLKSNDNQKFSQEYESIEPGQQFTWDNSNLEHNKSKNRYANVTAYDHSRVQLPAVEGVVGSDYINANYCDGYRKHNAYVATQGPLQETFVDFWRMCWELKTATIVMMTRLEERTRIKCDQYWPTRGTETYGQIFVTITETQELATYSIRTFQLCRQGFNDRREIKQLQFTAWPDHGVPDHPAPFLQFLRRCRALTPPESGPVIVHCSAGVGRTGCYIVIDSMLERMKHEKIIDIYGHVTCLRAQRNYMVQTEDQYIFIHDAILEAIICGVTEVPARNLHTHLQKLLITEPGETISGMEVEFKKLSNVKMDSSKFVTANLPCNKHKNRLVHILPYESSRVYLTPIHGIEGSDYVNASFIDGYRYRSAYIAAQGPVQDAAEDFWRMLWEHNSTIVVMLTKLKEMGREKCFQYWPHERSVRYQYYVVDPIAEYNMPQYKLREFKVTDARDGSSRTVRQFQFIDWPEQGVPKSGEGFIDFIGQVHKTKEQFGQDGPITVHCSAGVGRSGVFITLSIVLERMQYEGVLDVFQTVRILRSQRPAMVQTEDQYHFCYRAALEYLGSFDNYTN

T3: DLAR D1 (Drosophila melanogaster, UniProt P16621)
T3 construct: DLAR 1448-1746; His tag (pET-15b or pET-22b); made in house; host or cells: E. coli BL21(DE3)
T3 sequence (P16621 1448-1746): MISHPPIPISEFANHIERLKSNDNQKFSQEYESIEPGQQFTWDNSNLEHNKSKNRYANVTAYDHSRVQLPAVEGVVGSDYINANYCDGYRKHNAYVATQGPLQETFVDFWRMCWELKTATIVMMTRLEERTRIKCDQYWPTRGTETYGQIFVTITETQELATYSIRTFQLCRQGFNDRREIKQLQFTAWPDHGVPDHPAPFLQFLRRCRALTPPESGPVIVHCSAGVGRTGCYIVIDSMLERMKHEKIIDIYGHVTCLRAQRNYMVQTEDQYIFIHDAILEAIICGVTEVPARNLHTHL


Key:
DLAR D1HSS D2 = biological target: T1, DLAR D1HSS D2; test: Surface Plasmon Resonance peptide binding, DLAR D1HSS D2; settings: two-site model, read-out: ka
Method: (§1) The binding of phosphotyrosine peptides to the PTP domains was studied by Surface Plasmon Resonance on a Biacore-2000 instrument (BIAcore, AB). All experiments were conducted at 25°C. DLAR PTP domains were immobilized onto carboxylated dextran CM5 chips (BIAcore AB) using the standard amine coupling procedure as recommended by the manufacturer. Binding and kinetic assays were performed in 10 mM HEPES, pH 8.0, 150 mM NaCl, 10 mM DTT and 3 mM EDTA at a flow rate of 5 µL/min. The peptides were used at concentrations ranging from 50–700 µM. Dissociation was initiated by replacing the analyte with buffer. The association and dissociation curves were monitored for 600 sec. Sensograms were analyzed with BIA-evaluation software version 2 (BIAcore AB). Sensograms for DLAR D1D2, DLAR D1HSSD2 and DLAR D1D2HSS were fitted to two-site binding equations. DLAR D1 and DLAR D2 sensograms were fitted using a single-site binding model.

DLAR D1 D2HSS [1] = biological target: T4, DLAR D1 D2HSS (Drosophila melanogaster, UniProt P16621, C1961S); test: Surface Plasmon Resonance peptide binding, DLAR D1 D2HSS; settings: two-site model, read-out: ka
T4 construct: DLAR 1448-2029; His tag (pET-15b or pET-22b); made in house; host or cells: E. coli BL21(DE3)
Method: as §1

DLAR D1D2 [2] = biological target: T2, DLAR D1D2; test: Dephosphorylation of phosphotyrosine peptides (malachite green), DLAR D1D2; format: biochemical; settings: 0.01 µM protein, 25 mM citrate pH 6.0, 15 min at 25°C, malachite green
Excerpt: (§2) Substrates of PTPs characterized thus far include the activation loop segments of various kinases and regulatory loops of other signaling proteins. Suitably designed peptide substrates mimic the physiologically relevant substrates of PTPs. In the present study, peptide substrates were designed for DLAR for which more information was available on its interacting partners. […] The five peptides were chosen based on their distinct charge distributions around the central phosphotyrosine residue. The phosphorylated as well as non-phosphorylated peptides were obtained from GL Bioscience, China. The peptides were >95% pure and were used after a single round of desalting using a Sephadex G25 column (GE Healthcare). The concentration of the peptide samples for biochemical studies was ascertained by UV absorption at 268 nm for the pY residue.
(§3) Phosphatase activity of the recombinant PTP domains was determined by using para-Nitrophenylphosphate (pNPP), a small molecule generic substrate, as well as phosphotyrosine containing peptides. The pNPP assay was performed as reported previously, with a modification in the buffer composition (25 mM Citrate, Glycine and HEPES (CGH), pH 6.5, 100 mM NaCl and 2 mM DTT). Phosphatase activity with the phosphotyrosine peptides was ascertained by the malachite green reaction as described for PTPs previously. Briefly, the reaction mixture comprised of 0.01 µM protein incubated with increasing concentrations of different peptides in 25 mM citrate buffer pH 6.0, 100 mM NaCl and 2 mM DTT for 15 min at 25°C. The reaction was stopped by the addition of the Biomol Green reagent (Enzo Life Sciences) and the colour developed after 20 min was quantified at 650 nm. For all the assays, kinetic constants for the steady state catalysis were obtained by fitting the reaction curves to the Michaelis-Menten equation using the nonlinear regression module of Sigma plot software (Systat Software, Inc.).

DLAR D1 = biological target: T3, DLAR D1; test: Dephosphorylation of phosphotyrosine peptides (malachite green), DLAR D1; format: biochemical; settings: 0.01 µM protein, 25 mM citrate pH 6.0, 15 min at 25°C, malachite green
Excerpt: as §2, §3

DLAR D1D2 [3] = biological target: T2, DLAR D1D2; test: Surface Plasmon Resonance peptide binding, DLAR D1D2; settings: two-site model; for kon: read-out: ka
Method: as §1

DLAR D1 D2HSS [4] = biological target: T4, DLAR D1 D2HSS; format: biochemical; settings: 0.01 µM protein, 25 mM citrate pH 6.0, 15 min at 25°C, malachite green
Excerpt: as §2, §3

[5] = substrate: CC[C@H](C)[C@H](NC(=O)[C@H](CC(=O)O)NC(=O)[C@H](CCCNC(=N)N)NC(=O)[C@@H](N)[C@@H](C)O)C(=O)N[C@@H](Cc1ccc(OP(=O)(O)O)cc1)C(=O)N[C@@H](CCC(=O)O)C(=O)N[C@H](C(=O)N[C@@H](CC(=O)O)C(=O)N[C@@H](Cc1ccc(O)cc1)C(=O)N[C@@H](Cc1ccc(O)cc1)C(=O)N[C@@H](CCCNC(=N)N)C(=O)N[C@@H](CCCCN)C(=O)O)[C@@H](C)O; test: purified protein, by the assay type; settings: other: 0.01 µM protein, 25 mM citrate pH 6.0, 15 min at 25°C, malachite green
Method: (§4) Phosphatase activity with the phosphotyrosine peptides was ascertained by the malachite green reaction as described for PTPs previously [14]. Briefly, the reaction mixture comprised of 0.01 µM protein incubated with increasing concentrations of different peptides in 25 mM citrate buffer pH 6.0, 100 mM NaCl and 2 mM DTT for 15 min at 25°C. The reaction was stopped by the addition of the Biomol Green reagent (Enzo Life Sciences) and the colour developed after 20 min was quantified at 650 nm. For all the assays, kinetic constants for the steady state catalysis were obtained by fitting the reaction curves to the Michaelis-Menten equation using the nonlinear regression module of Sigma plot software (Systat Software, Inc.).

[6] = substrate: CC(C)C[C@H](NC(=O)[C@H](C)NC(=O)CNC(=O)[C@H](Cc1ccc(OP(=O)(O)O)cc1)NC(=O)[C@H](CC(=O)O)NC(=O)[C@@H]1CCCN1C(=O)[C@H](CCC(=O)O)NC(=O)[C@H](C)NC(=O)[C@@H](N)[C@@H](C)O)C(=O)N[C@@H](Cc1ccc(O)cc1)C(=O)N[C@@H](CCC(=O)O)C(=O)O; test: purified protein, by the assay type; settings: other: 0.01 µM protein, 25 mM citrate pH 6.0, 15 min at 25°C, malachite green
Method: as §4

[7] = pH 8, SPR Biacore-2000, 25°C, 10 mM HEPES pH 8.0, 150 mM NaCl, 10 mM DTT, 3 mM EDTA, peptides 50–700 µM, first binding site
[8] = pH 8, SPR, 25°C, pH 8.0, second binding site

T4 sequence (P16621 1448-2029 C1961S): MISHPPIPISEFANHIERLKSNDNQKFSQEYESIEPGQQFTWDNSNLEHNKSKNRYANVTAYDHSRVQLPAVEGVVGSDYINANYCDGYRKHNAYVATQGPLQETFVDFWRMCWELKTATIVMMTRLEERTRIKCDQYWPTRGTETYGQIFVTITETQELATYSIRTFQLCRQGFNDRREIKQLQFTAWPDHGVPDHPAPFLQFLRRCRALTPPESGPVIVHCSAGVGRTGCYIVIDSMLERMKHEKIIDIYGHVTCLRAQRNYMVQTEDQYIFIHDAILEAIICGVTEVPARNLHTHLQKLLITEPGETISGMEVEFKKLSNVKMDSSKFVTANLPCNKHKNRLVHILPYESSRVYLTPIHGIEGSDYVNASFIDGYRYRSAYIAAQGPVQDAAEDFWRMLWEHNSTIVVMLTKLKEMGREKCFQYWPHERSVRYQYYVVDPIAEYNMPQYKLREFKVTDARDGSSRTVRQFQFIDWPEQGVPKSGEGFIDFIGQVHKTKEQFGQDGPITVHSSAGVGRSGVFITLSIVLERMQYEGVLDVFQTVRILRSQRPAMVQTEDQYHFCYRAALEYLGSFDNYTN

Molecule	kon (DLAR D1HSS D2; [7])	kon (DLAR D1HSS D2; [8])	kon (DLAR D1 D2HSS [1]; [7])	kon (DLAR D1 D2HSS [1]; [8])	Km (DLAR D1D2 [2])	Km (DLAR D1)	Kd (DLAR D1D2 [3]; SPR, 25°C, pH 8.0, first binding site)	kon (DLAR D1D2 [3]; [7])	kon (DLAR D1D2 [3]; [8])	Km (DLAR D1 D2HSS [4])	Km [5]	Vmax [5]	kcat [5]	kcat/Km [5]	Km [6]	Vmax [6]	kcat [6]	kcat/Km [6]
CC[C@H](C)[C@H](NC(=O)[C@H](CC(=O)O)NC(=O)[C@H](CCCNC(=N)N)NC(=O)[C@@H](N)[C@@H](C)O)C(=O)N[C@@H](Cc1ccc(OP(=O)(O)O)cc1)C(=O)N[C@@H](CCC(=O)O)C(=O)N[C@H](C(=O)N[C@@H](CC(=O)O)C(=O)N[C@@H](Cc1ccc(O)cc1)C(=O)N[C@@H](Cc1ccc(O)cc1)C(=O)N[C@@H](CCCNC(=N)N)C(=O)N[C@@H](CCCCN)C(=O)O)[C@@H](C)O [Insulin Receptor peptide]	72.6 ± 1.2 M⁻¹ s⁻¹	74.5 ± 1.6 M⁻¹ s⁻¹	137 ± 2.84 M⁻¹ s⁻¹	12.3 ± 0.02 M⁻¹ s⁻¹	110 ± 7.82 µM	59.5 ± 5.6 µM	62.2 ± 0.48 µM	110 ± 2.32 M⁻¹ s⁻¹	2860 ± 90000 M⁻¹ s⁻¹	45.3 ± 4.1 µM								
PTP99A D1 (Drosophila melanogaster) (protein) DEIRAAVPVNEFAKHVASLHADGDIGFSREYEAIQNECISDDLPCEHSQHPENKRKNRYLNITAYDHSRVHLHPTPGQKKNLDYINANFIDGYQKGHAFIGTQGPLPDTFDCFWRMIWEQRVAIIVMITNLVERGRRKCDMYWPKDGVETYGVIQVKLIEEEVMSTYTVRTLQIKHLKLKKKKQCNTEKLVYQYHYTNWPDHGTPDHPLPVLNFVKKSSAANPAEAGPIVVHCSAGVGRTGTYIVLDAMLKQIQQKNIVNVFGFLRHIRAQRNFLVQTEEQYIFLHDALVEAIASGETNLMAEQVEE											1017 ± 161.84 µM	2.37 µmol/min/mg	1.58 ± 0.11 s⁻¹	1550 ± 22 M⁻¹ s⁻¹	309.04 ± 33.32 µM	1.26 µmol/min/mg	0.84 ± 0.04 s⁻¹	2718 ± 15 M⁻¹ s⁻¹
PTP99A D1 D2 (Drosophila melanogaster) (protein) DEIRAAVPVNEFAKHVASLHADGDIGFSREYEAIQNECISDDLPCEHSQHPENKRKNRYLNITAYDHSRVHLHPTPGQKKNLDYINANFIDGYQKGHAFIGTQGPLPDTFDCFWRMIWEQRVAIIVMITNLVERGRRKCDMYWPKDGVETYGVIQVKLIEEEVMSTYTVRTLQIKHLKLKKKKQCNTEKLVYQYHYTNWPDHGTPDHPLPVLNFVKKSSAANPAEAGPIVVHCSAGVGRTGTYIVLDAMLKQIQQKNIVNVFGFLRHIRAQRNFLVQTEEQYIFLHDALVEAIASGETNLMAEQVEELKNCTPYLEQQYKNIIQFQPKDIHIASAMKQVNSIKNRGAIFPIEGSRVHLTPKPGEDGSDYINASWLHGFRRLRDFIVTQHPMAHTIKDFWQMVWDHNAQTVVLLSSLDDINFAQFWPDEATPIESDHYRVKFLNKTNKSDYVSRDFVIQSIQDDYELTVKMLHCPSWPEMSNPNSIYDFIVDVHERCNDYRNGPIVIVDRYGGAQACTFCAISSLAIEMEYCSTANVYQYAKLYHNKRPGVWTSSEDIRVIYNILSFLPGNLNLLKRTALRTEFEDVTTATPDLYSKICSNG											35.75 ± 2.08 µM	46 µmol/min/mg	56.9 ± 1.03 s⁻¹	1.638e+06 ± 7400 M⁻¹ s⁻¹	112.42 ± 10.14 µM	17.1 µmol/min/mg	21.1 ± 0.82 s⁻¹	188000 ± 12900 M⁻¹ s⁻¹
